In patent US20110021746A1 (published 2011):

Target: T1, TNF-α (UniProt P01375 77-233, biotinylated)
T1 construct: also called TNF-alpha; biotintylated TNF-α soluble protein (R&D Systems)
Assay: Octet BLI, biotinylated TNF-α on streptavidin tips
Procedure: The target protein was biotintylated TNF-α soluble protein (R&D Systems) and is at a concentration of 0.25 ug/ml for loading onto the streptavidin sensor tips. […] The Octet was run using the manufacturers protocol for Basic Kinetic Assay.

T1 sequence (P01375 77-233 limits assumed): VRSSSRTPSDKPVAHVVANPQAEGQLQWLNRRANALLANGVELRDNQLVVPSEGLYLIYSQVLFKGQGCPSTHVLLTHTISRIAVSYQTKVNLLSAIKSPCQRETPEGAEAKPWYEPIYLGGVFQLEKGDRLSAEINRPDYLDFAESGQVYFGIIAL

Kd: 20 to 100 nM
B1: TNF-α binder R41A6 (designed binder)
chain: NVSPPRRARVTDATETTITISWEHSEDDCYSYIYYFQVDAVPANGQTPIQRTISGYETYYTITGLQPGTDYKIYLYTLNSAGFCPPYSKPVVIDAST
notes: 14FN3 variant; for the Octet expressed from pET-20b with pelB signal and C-terminal hexahistidine tag; also called TNF A6
